Non-standard residues stand in square brackets, D forms with d. No end group written: not given here. MPEG = methoxypoly(ethylene glycol), ~20,000 Da; 2Nal = N[C@@H](Cc1ccc2ccccc2c1)C(=O)O; Sar = CNCC(=O)O
Biological target: T1, human TPO receptor, c-mpl (hTPOr) (human, UniProt P40238 26-635)
T1 sequence (looked up): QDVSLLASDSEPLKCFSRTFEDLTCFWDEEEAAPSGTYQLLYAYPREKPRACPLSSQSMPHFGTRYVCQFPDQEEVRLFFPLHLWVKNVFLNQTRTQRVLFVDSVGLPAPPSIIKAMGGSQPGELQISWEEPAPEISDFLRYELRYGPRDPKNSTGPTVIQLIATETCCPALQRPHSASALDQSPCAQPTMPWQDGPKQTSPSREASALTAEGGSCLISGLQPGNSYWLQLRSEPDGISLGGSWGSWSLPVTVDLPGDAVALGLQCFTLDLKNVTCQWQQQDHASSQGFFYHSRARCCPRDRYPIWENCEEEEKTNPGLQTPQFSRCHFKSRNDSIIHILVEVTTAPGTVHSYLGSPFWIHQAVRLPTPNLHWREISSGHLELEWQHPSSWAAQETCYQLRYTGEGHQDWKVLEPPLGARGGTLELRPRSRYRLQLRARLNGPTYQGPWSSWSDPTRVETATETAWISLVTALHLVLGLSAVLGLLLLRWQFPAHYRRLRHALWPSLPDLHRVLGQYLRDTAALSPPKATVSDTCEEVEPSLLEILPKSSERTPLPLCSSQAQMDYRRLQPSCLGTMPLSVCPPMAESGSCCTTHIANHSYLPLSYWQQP
Assay: cell-based or functional assay

B1: PEGylated TPO Compound No. 1 (peptide)
peptide: {MPEG}-IEGPTLRQ[2Nal]LAAR[Sar]K[Sar]RAAL[2Nal]QRLTPGEI
modifications: not fully specified (C-terminus); printed as (MPEG-Ile-Glu-Gly-Pro-Thr-Leu-Arg-Gln-(2-Nal)-Leu-Ala-Ala-Arg-(Sar))2-Lys-NH2; also: branched dimer: two 14-mers joined at their C-termini to Lys alpha and epsilon amines, residues 16-29 written C→N, Ile29 is the second N-terminus bearing MPEG, Lys C-terminal amide (lysinamide)
EC50, luciferase reporter (fos promoter) in Baf/3 cells expressing human TPO-R: ~5 pM

From patent publication US20080119384A1 (Janssen / Centocor, published 2008)
